Results on two substances are retold here after patent US20160002326A1.

In assay [1] the target is rabbit IL-17 (rabbit). In words: Biacore SPR, 3 experiments; unit not printed in Table 10. Background: Surface plasmon resonance follows binding to a sensor surface in real time, without labels.
The target in assay [2] is rabbit IL-17 (rabbit). In words: cell-based or functional assay.
For assay [3], the target named is mouse IL-17 (mouse) (UniProt Q62386). In words: assay not stated (Table 5, 'Source And Binding Information').
Chain of mouse IL-17 (mouse) (Q62386 26-158 limits assumed): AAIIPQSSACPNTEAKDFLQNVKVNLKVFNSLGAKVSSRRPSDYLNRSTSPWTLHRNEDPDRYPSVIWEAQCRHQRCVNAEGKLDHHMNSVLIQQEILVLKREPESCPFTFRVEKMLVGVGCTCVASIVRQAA

Chain of ABBV-257 anti-human TNF and IL-17 DVD-Ig binding protein (bispecific antibody) (heavy): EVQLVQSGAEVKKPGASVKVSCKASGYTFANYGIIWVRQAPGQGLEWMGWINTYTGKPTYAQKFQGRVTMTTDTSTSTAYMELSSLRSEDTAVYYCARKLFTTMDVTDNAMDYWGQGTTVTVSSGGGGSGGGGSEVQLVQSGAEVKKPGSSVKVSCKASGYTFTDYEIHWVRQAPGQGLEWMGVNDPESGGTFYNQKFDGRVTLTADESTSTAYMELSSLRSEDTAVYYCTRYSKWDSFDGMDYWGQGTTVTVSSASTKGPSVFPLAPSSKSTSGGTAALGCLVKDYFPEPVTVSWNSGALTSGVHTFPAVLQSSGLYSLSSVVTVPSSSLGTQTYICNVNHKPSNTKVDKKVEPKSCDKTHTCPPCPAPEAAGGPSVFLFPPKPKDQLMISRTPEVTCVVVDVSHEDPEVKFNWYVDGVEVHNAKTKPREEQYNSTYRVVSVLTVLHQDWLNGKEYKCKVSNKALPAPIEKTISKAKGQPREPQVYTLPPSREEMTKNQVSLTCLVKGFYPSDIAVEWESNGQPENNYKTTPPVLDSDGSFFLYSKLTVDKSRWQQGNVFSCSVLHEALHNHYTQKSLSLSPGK
Chain of ABBV-257 anti-human TNF and IL-17 DVD-Ig binding protein (bispecific antibody) (light): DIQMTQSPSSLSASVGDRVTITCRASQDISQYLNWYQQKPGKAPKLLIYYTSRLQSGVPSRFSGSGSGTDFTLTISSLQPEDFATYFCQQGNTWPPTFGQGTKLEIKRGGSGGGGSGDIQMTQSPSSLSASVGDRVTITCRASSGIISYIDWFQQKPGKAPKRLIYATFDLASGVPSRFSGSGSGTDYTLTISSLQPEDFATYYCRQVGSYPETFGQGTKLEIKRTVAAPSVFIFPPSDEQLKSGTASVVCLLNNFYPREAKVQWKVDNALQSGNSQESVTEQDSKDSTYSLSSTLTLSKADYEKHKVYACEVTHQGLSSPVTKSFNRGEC

For the substance “ABBV-257 anti-human TNF and IL-17 DVD-Ig binding protein (bispecific antibody)”, the Kd – broadly, the constant that tells how readily two partners part at equilibrium – in assay [1] was determined as 3.3 nM. The IC50, in vitro neutralization assay (In-Vitro Potency) in assay [2] was 11.4 nM.
Take MAB421 anti-IL-17 antibody: the IC50 (as a rule, the point on the concentration scale where inhibition reaches its midpoint) in assay [3] came out at 0.7 nM.
